According to US20070004628A1 (SALK INSTITUTE FOR BIOLOGICAL STUDIES, published 2007):

Target: T1, p75 (endogenous, mouse) (Mus musculus, UniProt Q9Z0W1 32-427)
T1 construct: Endogenous p75 of P7 mouse cerebellum and of cerebellar granule neurons; also called p75NTR
T1 sequence: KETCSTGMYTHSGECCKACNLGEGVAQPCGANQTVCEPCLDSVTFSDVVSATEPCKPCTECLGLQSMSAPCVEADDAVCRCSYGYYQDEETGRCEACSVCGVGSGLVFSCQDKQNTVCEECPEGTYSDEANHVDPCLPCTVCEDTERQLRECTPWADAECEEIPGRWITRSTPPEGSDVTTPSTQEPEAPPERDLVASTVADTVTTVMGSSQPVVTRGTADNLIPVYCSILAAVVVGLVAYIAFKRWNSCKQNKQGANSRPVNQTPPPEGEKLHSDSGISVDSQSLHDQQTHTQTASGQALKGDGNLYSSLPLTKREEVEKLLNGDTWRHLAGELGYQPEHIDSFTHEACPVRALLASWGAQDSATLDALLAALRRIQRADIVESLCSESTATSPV
Assay: immunoprecipitation of P7 mouse cerebellar proteins with anti-p45 antibodies, immunoblot with anti-p75 antibodies

B1: full-length p45 (p45-FL) (receptor)
chain: MLYNVSKGVVYSDTALQGQDGDREGMWVGAGGALAPNTSSLFPPEPPGASSNIIPVYCALLATVILGLLAYVAFKCWRSHKQRQQLAKARTVELGDPDRDQRRGDSNVFVDSPPSLEPCIPSQGPHPDLGCQLYLHIPQQQQEEVQRLLMMGEPAKGWQELAGHLGYQAEAVETMACDQMPAYTLLRNWAAQEGNRATLRVLEDALAAIGREDVVQVLSSPAESSSVV
notes: Untagged full-length p45 expressed in HEK293 cells or from transfected capped RNA in CGNs; Also used here for endogenous p45 of P7 mouse cerebellum; also called PLAIDD; NRADD
binding result: binds
